Measurements taken from article PMC12102759 (2025).

B1: AMOTL2 peptide 64-79 (Angiomotin-like protein 2), 16-mer library wild type / TNKS ANK (TNKS 12 ANK repeats, residues 174-649) (parent complex)
chain 1: QVLQQATRQEPQGQEH
chain 2: TGVPAVSGALRELLEACRNGDVSRVKRLVDAANVNAKDMAGRKSSPLHFAAGFGRKDVVEHLLQMGANVHARDDGGLIPLHNACSFGHAEVVSLLLCQGADPNARDNWNYTPLHEAAIKGKIDVCIVLLQHGADPNIRNTDGKSALDLADPSAKAVLTGEYKKDELLEAARSGNEEKLMALLTPLNVNCHASDGRKSTPLHLAAGYNRVRIVQLLLQHGADVHAKDKGGLVPLHNACSYGHYEVTELLLKHGACVNAMDLWQFTPLHEAASKNRVEVCSLLLSHGADPTLVNCHGKSAVDMAPTPELRERLTYEFKGHSLLQAAREADLAKVKKTLALEIINFKQPQSHETALHCAVASLHPKRKQVTELLLRKGANVNEKNKDFMTPLHVAAERAHNDVMEVLHKHGAKMNALDTLGQTALHRAALAGHLQTCRLLLSYGSDPSIISLQGFTAAQMGNEAVQQILSESTPIRTSD

Variants of: B1
Test: proteomic peptide phage display deep mutational scan (ProP-PD DMS): M13 P8 16-mer library selected against immobilised GST-tagged bait for four days (rounds), NGS of the eluted pools per day and pseudo-replica; bait immobilised on MaxiSorp plates (10 µg), library pre-cleared on GST, 2 h binding at 4 °C, five washes; one round per day, days 1-4; value from days 2 and 3

With chain 1 Q4H as the variant, how does the screen value read?
The screen value was 0.000314 average fractional NGS count over selection days 2 and 3 (reads of this peptide / all reads for the bait, averaged over ….

With chain 1 Q4P as the variant, how does the screen value read?
Its screen value is 0.000712 average fractional NGS count over selection days 2 and 3 (reads of this peptide / all reads for the bait, averaged over ….

How did the screen value turn out when chain 1 Q4N was run?
The screen value was 0.00124 average fractional NGS count over selection days 2 and 3 (reads of this peptide / all reads for the bait, averaged over ….

With chain 1 Q4K as the variant, how does the screen value read?
Its screen value is 0.000138 average fractional NGS count over selection days 2 and 3 (reads of this peptide / all reads for the bait, averaged over ….

With chain 1 Q4I as the variant, how does the screen value read?
The screen value was 0.0028 average fractional NGS count over selection days 2 and 3 (reads of this peptide / all reads for the bait, averaged over ….

chain 1 Q4A was tested. Which screen value did it give?
The screen value was 0.00355 average fractional NGS count over selection days 2 and 3 (reads of this peptide / all reads for the bait, averaged over ….

chain 1 Q4M was tested. Which screen value did it give?
The screen value was 0.000805 average fractional NGS count over selection days 2 and 3 (reads of this peptide / all reads for the bait, averaged over ….

With chain 1 Q4T as the variant, how does the screen value read?
Its screen value is 0.0012 average fractional NGS count over selection days 2 and 3 (reads of this peptide / all reads for the bait, averaged over ….

With chain 1 Q4L as the variant, how does the screen value read?
The screen value was 0.000267 average fractional NGS count over selection days 2 and 3 (reads of this peptide / all reads for the bait, averaged over ….

How did the screen value turn out when chain 1 Q4D was run?
Its screen value is 0.000668 average fractional NGS count over selection days 2 and 3 (reads of this peptide / all reads for the bait, averaged over ….

chain 1 Q4Y was tested. Which screen value did it give?
Its screen value is 0.00141 average fractional NGS count over selection days 2 and 3 (reads of this peptide / all reads for the bait, averaged over ….

For chain 1 Q4R, which screen value is on record?
Its screen value is 0.000203 average fractional NGS count over selection days 2 and 3 (reads of this peptide / all reads for the bait, averaged over ….

chain 1 Q4W was tested. Which screen value did it give?
The screen value was 0.000181 average fractional NGS count over selection days 2 and 3 (reads of this peptide / all reads for the bait, averaged over ….

For chain 1 Q4S, which screen value is on record?
The screen value was 0.000703 average fractional NGS count over selection days 2 and 3 (reads of this peptide / all reads for the bait, averaged over ….

How did the screen value turn out when chain 1 L3M was run?
The screen value was 0.000608 average fractional NGS count over selection days 2 and 3 (reads of this peptide / all reads for the bait, averaged over ….

How did the screen value turn out when chain 1 L3H was run?
The screen value was 0.00318 average fractional NGS count over selection days 2 and 3 (reads of this peptide / all reads for the bait, averaged over ….

chain 1 L3F was tested. Which screen value did it give?
Its screen value is 0.00165 average fractional NGS count over selection days 2 and 3 (reads of this peptide / all reads for the bait, averaged over ….

Which screen value does the source give for chain 1 L3Q here?
Its screen value is 0.00366 average fractional NGS count over selection days 2 and 3 (reads of this peptide / all reads for the bait, averaged over ….

How did the screen value turn out when chain 1 L3V was run?
The screen value was 0.00036 average fractional NGS count over selection days 2 and 3 (reads of this peptide / all reads for the bait, averaged over ….

Which screen value does the source give for chain 1 L3R here?
The screen value was 0.000319 average fractional NGS count over selection days 2 and 3 (reads of this peptide / all reads for the bait, averaged over ….

chain 1 L3G was tested. Which screen value did it give?
The screen value was 0.000399 average fractional NGS count over selection days 2 and 3 (reads of this peptide / all reads for the bait, averaged over ….

chain 1 L3T was tested. Which screen value did it give?
The screen value was 0.00246 average fractional NGS count over selection days 2 and 3 (reads of this peptide / all reads for the bait, averaged over ….

With chain 1 L3I as the variant, how does the screen value read?
Its screen value is 0.00105 average fractional NGS count over selection days 2 and 3 (reads of this peptide / all reads for the bait, averaged over ….

How did the screen value turn out when chain 1 L3E was run?
Its screen value is 0.00384 average fractional NGS count over selection days 2 and 3 (reads of this peptide / all reads for the bait, averaged over ….

How did the screen value turn out when chain 1 L3P was run?
The screen value was 0.000422 average fractional NGS count over selection days 2 and 3 (reads of this peptide / all reads for the bait, averaged over ….

How did the screen value turn out when chain 1 L3D was run?
Its screen value is 0.000181 average fractional NGS count over selection days 2 and 3 (reads of this peptide / all reads for the bait, averaged over ….

For chain 1 L3A, which screen value is on record?
The screen value was 0.000396 average fractional NGS count over selection days 2 and 3 (reads of this peptide / all reads for the bait, averaged over ….

Which screen value does the source give for chain 1 L3S here?
Its screen value is 0.000145 average fractional NGS count over selection days 2 and 3 (reads of this peptide / all reads for the bait, averaged over ….

With chain 1 L3Y as the variant, how does the screen value read?
Its screen value is 0.000502 average fractional NGS count over selection days 2 and 3 (reads of this peptide / all reads for the bait, averaged over ….

How did the screen value turn out when chain 1 L3K was run?
The screen value was 0.00157 average fractional NGS count over selection days 2 and 3 (reads of this peptide / all reads for the bait, averaged over ….

chain 1 V2R was tested. Which screen value did it give?
Its screen value is 0.000931 average fractional NGS count over selection days 2 and 3 (reads of this peptide / all reads for the bait, averaged over ….

How did the screen value turn out when chain 1 V2A was run?
The screen value was 0.00302 average fractional NGS count over selection days 2 and 3 (reads of this peptide / all reads for the bait, averaged over ….

Which screen value does the source give for chain 1 V2W here?
The screen value was 0.00102 average fractional NGS count over selection days 2 and 3 (reads of this peptide / all reads for the bait, averaged over ….

With chain 1 V2Y as the variant, how does the screen value read?
Its screen value is 0.000153 average fractional NGS count over selection days 2 and 3 (reads of this peptide / all reads for the bait, averaged over ….

chain 1 V2L was tested. Which screen value did it give?
Its screen value is 0.0017 average fractional NGS count over selection days 2 and 3 (reads of this peptide / all reads for the bait, averaged over ….

How did the screen value turn out when chain 1 V2N was run?
Its screen value is 0.00035 average fractional NGS count over selection days 2 and 3 (reads of this peptide / all reads for the bait, averaged over ….

How did the screen value turn out when chain 1 V2H was run?
The screen value was 0.00146 average fractional NGS count over selection days 2 and 3 (reads of this peptide / all reads for the bait, averaged over ….

chain 1 V2T was tested. Which screen value did it give?
The screen value was 0.00555 average fractional NGS count over selection days 2 and 3 (reads of this peptide / all reads for the bait, averaged over ….

chain 1 V2P was tested. Which screen value did it give?
Its screen value is 0.000487 average fractional NGS count over selection days 2 and 3 (reads of this peptide / all reads for the bait, averaged over ….

Which screen value does the source give for chain 1 V2S here?
Its screen value is 0.000464 average fractional NGS count over selection days 2 and 3 (reads of this peptide / all reads for the bait, averaged over ….

chain 1 V2I was tested. Which screen value did it give?
Its screen value is 0.0014 average fractional NGS count over selection days 2 and 3 (reads of this peptide / all reads for the bait, averaged over ….

How did the screen value turn out when chain 1 V2E was run?
Its screen value is 0.00192 average fractional NGS count over selection days 2 and 3 (reads of this peptide / all reads for the bait, averaged over ….

chain 1 Q14I was tested. Which screen value did it give?
Its screen value is 0.002 average fractional NGS count over selection days 2 and 3 (reads of this peptide / all reads for the bait, averaged over ….

For chain 1 Q14W, which screen value is on record?
Its screen value is 0.00254 average fractional NGS count over selection days 2 and 3 (reads of this peptide / all reads for the bait, averaged over ….

How did the screen value turn out when chain 1 Q14D was run?
The screen value was 0.00025 average fractional NGS count over selection days 2 and 3 (reads of this peptide / all reads for the bait, averaged over ….

How did the screen value turn out when chain 1 Q14R was run?
Its screen value is 0.0014 average fractional NGS count over selection days 2 and 3 (reads of this peptide / all reads for the bait, averaged over ….

chain 1 Q14V was tested. Which screen value did it give?
Its screen value is 0.000381 average fractional NGS count over selection days 2 and 3 (reads of this peptide / all reads for the bait, averaged over ….

For chain 1 Q14K, which screen value is on record?
Its screen value is 0.000473 average fractional NGS count over selection days 2 and 3 (reads of this peptide / all reads for the bait, averaged over ….

For chain 1 Q14L, which screen value is on record?
Its screen value is 0.000371 average fractional NGS count over selection days 2 and 3 (reads of this peptide / all reads for the bait, averaged over ….

With chain 1 Q14S as the variant, how does the screen value read?
Its screen value is 0.00613 average fractional NGS count over selection days 2 and 3 (reads of this peptide / all reads for the bait, averaged over ….

For chain 1 Q14T, which screen value is on record?
Its screen value is 0.00286 average fractional NGS count over selection days 2 and 3 (reads of this peptide / all reads for the bait, averaged over ….

Which screen value does the source give for chain 1 Q14H here?
The screen value was 0.00069 average fractional NGS count over selection days 2 and 3 (reads of this peptide / all reads for the bait, averaged over ….

chain 1 Q14Y was tested. Which screen value did it give?
Its screen value is 0.000143 average fractional NGS count over selection days 2 and 3 (reads of this peptide / all reads for the bait, averaged over ….

With chain 1 Q14N as the variant, how does the screen value read?
Its screen value is 0.00223 average fractional NGS count over selection days 2 and 3 (reads of this peptide / all reads for the bait, averaged over ….

How did the screen value turn out when chain 1 G13R was run?
The screen value was 0.000155 average fractional NGS count over selection days 2 and 3 (reads of this peptide / all reads for the bait, averaged over ….

With chain 1 R8A as the variant, how does the screen value read?
Its screen value is 0.000176 average fractional NGS count over selection days 2 and 3 (reads of this peptide / all reads for the bait, averaged over ….

For chain 1 E15Q, which screen value is on record?
Its screen value is 0.000335 average fractional NGS count over selection days 2 and 3 (reads of this peptide / all reads for the bait, averaged over ….

How did the screen value turn out when chain 1 E15T was run?
Its screen value is 0.00184 average fractional NGS count over selection days 2 and 3 (reads of this peptide / all reads for the bait, averaged over ….

Which screen value does the source give for chain 1 E15R here?
The screen value was 0.00165 average fractional NGS count over selection days 2 and 3 (reads of this peptide / all reads for the bait, averaged over ….

How did the screen value turn out when chain 1 E15L was run?
The screen value was 0.00245 average fractional NGS count over selection days 2 and 3 (reads of this peptide / all reads for the bait, averaged over ….

Which screen value does the source give for chain 1 E15V here?
Its screen value is 0.00435 average fractional NGS count over selection days 2 and 3 (reads of this peptide / all reads for the bait, averaged over ….

How did the screen value turn out when chain 1 E15P was run?
The screen value was 0.000133 average fractional NGS count over selection days 2 and 3 (reads of this peptide / all reads for the bait, averaged over ….

For chain 1 E15D, which screen value is on record?
Its screen value is 0.000568 average fractional NGS count over selection days 2 and 3 (reads of this peptide / all reads for the bait, averaged over ….

Which screen value does the source give for chain 1 E15F here?
The screen value was 0.000795 average fractional NGS count over selection days 2 and 3 (reads of this peptide / all reads for the bait, averaged over ….

With chain 1 E15S as the variant, how does the screen value read?
Its screen value is 0.00106 average fractional NGS count over selection days 2 and 3 (reads of this peptide / all reads for the bait, averaged over ….

Which screen value does the source give for chain 1 E15M here?
Its screen value is 0.000421 average fractional NGS count over selection days 2 and 3 (reads of this peptide / all reads for the bait, averaged over ….

For chain 1 E15W, which screen value is on record?
Its screen value is 0.00103 average fractional NGS count over selection days 2 and 3 (reads of this peptide / all reads for the bait, averaged over ….

For chain 1 E15N, which screen value is on record?
Its screen value is 0.00037 average fractional NGS count over selection days 2 and 3 (reads of this peptide / all reads for the bait, averaged over ….

Which screen value does the source give for chain 1 E15Y here?
The screen value was 0.0003 average fractional NGS count over selection days 2 and 3 (reads of this peptide / all reads for the bait, averaged over ….

chain 1 E15A was tested. Which screen value did it give?
The screen value was 0.000599 average fractional NGS count over selection days 2 and 3 (reads of this peptide / all reads for the bait, averaged over ….

How did the screen value turn out when chain 1 Q9E was run?
The screen value was 0.000877 average fractional NGS count over selection days 2 and 3 (reads of this peptide / all reads for the bait, averaged over ….

Which screen value does the source give for chain 1 Q9V here?
The screen value was 0.000414 average fractional NGS count over selection days 2 and 3 (reads of this peptide / all reads for the bait, averaged over ….

chain 1 Q9W was tested. Which screen value did it give?
The screen value was 0.000813 average fractional NGS count over selection days 2 and 3 (reads of this peptide / all reads for the bait, averaged over ….

How did the screen value turn out when chain 1 Q9M was run?
Its screen value is 0.000331 average fractional NGS count over selection days 2 and 3 (reads of this peptide / all reads for the bait, averaged over ….

chain 1 Q9F was tested. Which screen value did it give?
The screen value was 0.000243 average fractional NGS count over selection days 2 and 3 (reads of this peptide / all reads for the bait, averaged over ….
